Key:
Assay type in all cases: physicochemical
[1] = Transmission electron microscopy of particles; settings: 0.5 mg/mL
Experimental: Transmission electron microscopy (TEM) experiments were undertaken to visualize and confirm particle sizes. The CE2-RGD-TFL (0.5 mg/mL) was heated to 20° C. or 50° C. for 1.5 hours followed by application of the protein onto copper square mesh TEM grids and 1% uranyl acetate negative staining. The TEM grids were imaged using a FEI Titan Halo 300 kV electron microscope.

[2] = Doxorubicin loading/encapsulation by gel filtration and absorbance at 485 nm; settings: 100 μM free doxorubicin, 4° C., 2 hours
Experimental: A mixture of 100 μM free doxorubicin (DOX) (see the extraction method below) and either CE2-RGD or CE2-RGD-TFL and standards (100 μM, 75 μM, 50 μM, 25 μM, 10 μM, 5 μM and 0 μM) were incubated at 4° C. for 2 hours in the dark. After this incubation period, the mixtures were subjected to G-25 Sephadex (Sigma-Aldrich) gel filtration chromatography with fifteen elutions of 50 mM Na2HPO4, 0.5 M NaCl, pH 8.0 at room temperature. The eluted fractions were subjected to absorbance readings ranging from 420-600 nm (Molecular Devices Spectramax M2). The eluted fraction with highest absorbance reading at 485 nm was incorporated in the standard curve trendline equation to determine the total concentration of DOX bound to the protein. That protein sample was also subjected to the BCA assay enhanced protocol to determine the total protein concentration.
Extraction of DOX from a doxorubicin-HCl (DOX-HCl) was required to achieve free hydrophobic doxorubicin for pore encapsulation. […] The final concentration of free DOX was determined by generating a standard curve from absorbance of DOX-HCl from 420-600 nm and incorporating the free DOX into the trendline equation. The absorbance measurement for free DOX concentration determination was taken at 485 nm.

[3] = Dynamic light scattering as a function of temperature; settings: doxorubicin loaded versus unloaded
Experimental: Dynamic light scattering (DLS) measurements were performed on a Zetasizer Nano Series model Nano ZS90 in a type 21 quartz cuvette with the applied settings: material protein (refractive index 1.450), absorption 0.001, dispersant PBS with a viscosity of 1.0200 cP and refractive index of 1.335. Measurements were taken in triplicates, conducting 10 runs for each measurement, with a delay time of 2 seconds. Approximately, 1.0 mL of 0.5, 0.75 or 1.0 mg/mL CE2-RGD-TFL or CE2-RGD in 50 mM Na2HPO4, 0.5 M NaCl, pH 8.0 was then added to the cell.

[4] = UV-Vis temperature transition (Tt) at 320 nm; settings: 50 mM Na2HPO4, 0.5 M NaCl, pH 8.0
Experimental: Proteins were characterized for their temperature transition (Tt) behavior at a wavelength of 320 nm using a UV-Vis Cary-50 (Varian Inc., Cary, N.C.) equipped with a TC125 temperature regulator (Quantum Northwest, Liberty Lake, Wash.). Samples were heated at a rate of 1° C./minute from 15° C. to 85° C. The Tt was determined by taking the first derivative of the normalized absorbance (320 nm) as a function of temperature.

[5] = Circular dichroism secondary structure
Experimental: Circular dichroism (CD) spectroscopy was used to confirm the secondary structure. This was accomplished using a Jasco J-815 CD spectrometer with a PTC-423 S single position Peltier temperature control system. For CD experiments assessing the protein structure alone, protein concentrations were kept constant at 0.200 mg/mL in of 50 mM Na2HPO4, 0.5 M NaCl, pH 8.0. The wavelength spectrum was measured over the range of 200-300 nm with a bandwidth (step size) of 1 nm. The scanning mode was continuous at 20 nm/minute. All wavelength CD runs were conducted at 4° C.
In terms of calculations for CD analysis, molar residue ellipticity (θMRE) was calculated from ellipticity (θ) using the following equation: (1) θMRE=θ/(10*Protein Conc.*Path Length*Length of Sequence)

B1: CE2-RGD-TFL: fluorinated protein block copolymer, SEQ ID NO:18: COMPcc domain flanked by RGD linkers plus elastin-like domain; all 11 leucines as 5,5,5-trifluoroleucine (protein)
chain: MRGSHHHHHHGSACELAARGDATATATATAACGDLAPQMLRELQETNAALQDVRELLRQQVKEITFLKNTVMESDASGLQAARGDATATATATAVDKPIAASAVPGVGVPGVGVPGFGVPGVGVPGVGVPGVGVPGVGVPGFGVPGVGVPGVGVPLEGSGTGAKLN
modifications: all leucines as 5,5,5-trifluoroleucine
notes: all 11 leucines as 5,5,5-trifluoroleucine
For B1, the “particle appearance (TEM)” value ([1]; 50° C. for 1.5 hours) was “amorphous aggregates of no discernible uniformity in size”, the “particle diameter (TEM)” value ([1]; 1.5 hour incubation at 20° C.) was 30 nm and the “available doxorubicin encapsulated upon saturation” value [2] was 49.1%. The “doxorubicin loading per milligram of protein” value [2] was 29.90±2.68 μg per milligram, the “onset of temperature-driven coacervation (DLS) upon loading of doxorubicin” value [3] was “delay in the onset of temperature-driven coacervation” and the “Tt (transition temperature)” value ([4]; Conc. 0.20 mg/mL) was 52.04 ± 0.84 °C. For the same molecule, the “Tt (transition temperature)” value ([4]; Conc. 0.50 mg/mL) was 47.87 ± 0.72 °C, the “Tt (transition temperature)” value ([4]; Conc. 0.75 mg/mL) was 46.36 ± 0.03 °C and the “Tt (transition temperature)” value ([4]; Conc. 1.00 mg/mL) was 45.71 ± 0.51 °C. For the same molecule, the “secondary structure (circular dichroism) versus CE2-RGD” value ([5]; 0.200 mg/mL, 4° C.) was “less structure” and the “secondary structure (circular dichroism) upon loading of doxorubicin” value ([5]; doxorubicin loaded versus unloaded) was “increase in secondary structure”.
